The results in this text go back to patent US20240279315A1 (priority 2023, published 2024).

The subject of experiment [1] is influenza A/Anhui/1/2013 (H7N9) virus. Details: species or system BALB/c mice. As to conditions: mouse, in vivo.
Experiment [2] concerns the target hemagglutinin (HA) of influenza A/Hong Kong/45/2019 H3N2 (influenza A virus A/Hong Kong/45/2019 (H3N2)). The experiment in a line: cell-based or functional assay.
In experiment [3] the target is hemagglutinin (HA) of influenza A/Kansas/14/2017 H3N2 (influenza A virus A/Kansas/14/2017 (H3N2)). The experiment in a line: cell-based or functional assay.
The target of experiment [4] is hemagglutinin (HA) of influenza B/Washington/02/2019 B-Vic (influenza B virus B/Washington/02/2019). The experiment in a line: cell-based or functional assay.
Experiment [5] concerns the target hemagglutinin (HA) of influenza B/Colorado/06/2017 B-Vic (influenza B virus B/Colorado/06/2017). The experiment in a line: cell-based or functional assay.
For experiment [6], the target named is hemagglutinin (HA) of influenza B/Maryland/15/2016 B-Vic (influenza B virus B/Maryland/15/2016). The experiment in a line: cell-based or functional assay.
Experiment [7] has as its target hemagglutinin (HA) of influenza B/California/12/2015 B-Yam (influenza B virus B/California/12/2015). The experiment in a line: cell-based or functional assay.
The target in experiment [8] is hemagglutinin (HA) of influenza A/Singapore/INFIMH-16-0019/2016 H3N2 (influenza A virus A/Singapore/INFIMH-16-0019/2016 (H3N2)). The experiment in a line: cell-based or functional assay.
Experiment [9] addresses hemagglutinin (HA) of influenza A/Cambodia/e0826360/2020 H3N2 (influenza A virus A/Cambodia/e0826360/2020 (H3N2)). The experiment in a line: cell-based or functional assay.
In experiment [10] the target is hemagglutinin (HA) of influenza A/Brisbane/02/2018 H1N1 (influenza A virus A/Brisbane/02/2018 (H1N1)). The experiment in a line: cell-based or functional assay.
The target in experiment [11] is hemagglutinin (HA) of influenza A/Victoria/2570/2019 H1N1 (influenza A virus A/Victoria/2570/2019 (H1N1)). The experiment in a line: cell-based or functional assay.
Experiment [12] concerns the target hemagglutinin (HA) of influenza B/Phuket/3073/2013 B-Yam (influenza B virus B/Phuket/3073/2013). The experiment in a line: cell-based or functional assay.
Experiment [13] has as its target hemagglutinin (HA) of influenza A/Kansas/14/2017 H3N2 (influenza A virus A/Kansas/14/2017 (H3N2)). The experiment in a line: cell-based or functional assay. This is another data set of the same source.
For experiment [14], the target named is hemagglutinin (HA) of influenza B/Washington/02/2019 B-Vic (influenza B virus B/Washington/02/2019). The experiment in a line: cell-based or functional assay. This is another data set of the same source.
Experiment [15] has as its target hemagglutinin (HA) of influenza B/Colorado/06/2017 B-Vic (influenza B virus B/Colorado/06/2017). The experiment in a line: cell-based or functional assay. The source holds these as a separate data set.
Experiment [16] has as its target hemagglutinin (HA) of influenza A/Sydney/5/2021 (influenza A virus A/Sydney/5/2021). The experiment in a line: cell-based or functional assay.
The target of experiment [17] is hemagglutinin (HA) of influenza B/Austria/1359417/2021 (influenza B virus B/Austria/1359417/2021). The experiment in a line: cell-based or functional assay.
The target in experiment [18] is hemagglutinin (HA) of influenza A/Hawaii/70/2019 (influenza A virus A/Hawaii/70/2019). The experiment in a line: cell-based or functional assay.
The target in experiment [19] is hemagglutinin (HA) of influenza A/Darwin/6/2021 (influenza A virus A/Darwin/6/2021). The experiment in a line: cell-based or functional assay.
The target of experiment [20] is hemagglutinin (HA) of influenza A/Singapore/INFIMH-16-0019/2016 H3N2 (influenza A virus A/Singapore/INFIMH-16-0019/2016 (H3N2)). The experiment in a line: cell-based or functional assay. This is another data set of the same source.
The target in experiment [21] is hemagglutinin (HA) of influenza A/Tasmania/503/2020 (H3N2) (influenza A virus A/Tasmania/503/2020 (H3N2)). The experiment in a line: cell-based or functional assay.
Experiment [22] addresses hemagglutinin (HA) of influenza A/Wisconsin/588/2019 (influenza A virus A/Wisconsin/588/2019). The experiment in a line: cell-based or functional assay.
Experiment [23] concerns the target hemagglutinin (HA) of influenza A/Brisbane/02/2018 H1N1 (influenza A virus A/Brisbane/02/2018 (H1N1)). The experiment in a line: cell-based or functional assay. This is another data set of the same source.
The target in experiment [24] is hemagglutinin (HA) of influenza B/Phuket/3073/2013 B-Yam (influenza B virus B/Phuket/3073/2013). The experiment in a line: cell-based or functional assay. The source holds these as a separate data set.
The target of experiment [25] is hemagglutinin (HA) of influenza A/Hong Kong/45/2019 H3N2 (influenza A virus A/Hong Kong/45/2019 (H3N2)). The experiment in a line: cell-based or functional assay. This is another data set of the same source.
For experiment [26], the target named is hemagglutinin (HA) of influenza A/Cambodia/e0826360/2020 H3N2 (influenza A virus A/Cambodia/e0826360/2020 (H3N2)). The experiment in a line: cell-based or functional assay. This is another data set of the same source.
The target in experiment [27] is hemagglutinin (HA) of influenza A/Victoria/2570/2019 H1N1 (influenza A virus A/Victoria/2570/2019 (H1N1)). The experiment in a line: cell-based or functional assay. The source holds these as a separate data set.

Where two headings read alike, the source gives them in different places.

Regarding `CCOC(=O)C1=C[C@@H](OC(CC)CC)[C@H](NC(C)=O)[C@@H](N)C1` [oseltamivir], in experiment [1], the “protection from challenge (body weight)” value is “did show protection from challenge”.
On to SAB-176 Lot 4 (PD2102092QR) (antibody), for which the HAI titer of drug product in experiment [2] is 1920 titer; in experiment [4] it was 960 titer; in experiment [12] it was 3840 titer. Moreover, the HAI titer in experiment [3] was determined as 256 titer; in experiment [4] it was 128 titer; in [5], 256 titer; in [6], 256 titer; in [7], 128 titer; in experiment [8] it was 512 titer. Moreover, the HAI titer in experiment [9] stood at 256 titer; in experiment [10], 512 titer; in experiment [11] it was 256 titer; in experiment [12] it was 128 titer; in experiment [13] it was 320 titer; in experiment [14], 160 titer. Also, the HAI titer in experiment [15] was 160 titer; in experiment [16], 320 titer; in [17], 40 titer; in [18], 905 titer; in experiment [19] it was 160 titer; in [20], 640 titer. Besides, the HAI titer in experiment [21] was determined as 320 titer; in [22] it was 640 titer; in experiment [23], 1280 titer; in [24], 160 titer; in experiment [25], 256 titer. Also, the HAI titer ratio of SAB-176 to hIVIG is 8 to 64 X in experiment [3]; 16 to 32 X in [4]; 16 to 32 X in experiment [5]; 16 to 32 X in experiment [6]; 16 to 32 X in experiment [7]; 8 to 32 X in experiment [8]. The HAI titer ratio of SAB-176 to hIVIG is 8 to 16 X in experiment [9]; 16 to 32 X in experiment [10]; 16 X in experiment [12]; 16 to 32 X in experiment [25]; 32 X in experiment [26]; 16 to 32 X in [27].
